Assay results published in US20140056918A1 (Novo Nordisk, published 2014).

T1: Human OSCAR-ECD (recombinant extracellular domain of human OSCAR) (human, UniProt Q8IYS5 19-218)
T1 construct: also called OSACAR-ECD
T1 chain: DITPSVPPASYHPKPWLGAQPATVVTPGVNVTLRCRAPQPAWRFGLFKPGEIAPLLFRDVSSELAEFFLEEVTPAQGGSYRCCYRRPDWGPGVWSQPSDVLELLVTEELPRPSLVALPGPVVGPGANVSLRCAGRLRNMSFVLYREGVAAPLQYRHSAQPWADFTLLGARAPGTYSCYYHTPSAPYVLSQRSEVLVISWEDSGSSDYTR

T2: Human OSCAR (osteoclast-associated receptor), full length, on cells (human)
T2 construct: The signal peptide limits cannot be read from the text; also called hOSCAR; HEK-OSCAR cells
T2 chain: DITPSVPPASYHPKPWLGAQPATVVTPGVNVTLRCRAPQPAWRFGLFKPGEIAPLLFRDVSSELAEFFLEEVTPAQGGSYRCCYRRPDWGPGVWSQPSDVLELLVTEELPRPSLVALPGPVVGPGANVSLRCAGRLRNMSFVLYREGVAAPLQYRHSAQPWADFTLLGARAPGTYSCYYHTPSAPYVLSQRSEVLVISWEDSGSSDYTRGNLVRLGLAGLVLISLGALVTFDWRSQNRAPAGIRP


How the values were obtained:
[1] = target: T1, Human OSCAR-ECD (recombinant …); assay: SPR competition, 50 nM OSCAR-ECD premixed with mAb, over immobilised collagen I
Protocol: (§1) The experiment was performed using a Biacore T 100 instrument (GE Healthcare). Human collagen 1 (Sigma, # C5483) and human collagen 2 (Millipore #CC052) were diluted with 10 mM NaOAc, pH 4.5 and immobilized on a Biacore CM3 sensor chip (GE Healthcare) using amine coupling chemistry (GE Healthcare). Immobilization was performed according to the standard procedure, but at 5° C. in order to prevent aggregation collagens, with immobilized levels of ca 250 RU on flow cells (FC) 2 and 4. A blank immobilization was performed on FC 1 & 3, which were used as reference cells. HBS-EP buffer (10 mM HEPES, 150 mM NaCl, 3 mM EDTA, 0.05% Polysorbat P20, pH7.4) was used as running buffer for the immobilization. Buffer containing HBS-EP/+0.1% BSA was used for the competition assay. The competition experiment was performed at 5° C. at a flow rate of 50 μl/min. […] OSCAR was mixed with various concentrations of anti-OSCAR antibodies ranging from 0-10 μg/ml prior to injection. Binding curves were measured for 360 s followed by 240 s of dissociation. The chip surface was regenerated for 2×20 s with 10 mM glycine, pH 2.0 between assays.
(§2) Human collagen I and II were immobilized to the surface of a Biacore sensor chip by amine coupling. […] It was hypothesized that an antibody inhibiting binding of OSCAR to collagen would lead to a concentration-dependent loss of signal, whereas a non-inhibiting antibody would enhance the signal due to the increased mass of the OSCAR-antibody complex.

[2] = target: T2, Human OSCAR (osteoclast-associated …); assay: flow cytometry on primary human monocytes, donor #1
Protocol: (§3) Cell number and viability were determined using a Cedex cell counter. The cells were diluted in washing buffer (1×PBS (—Ca²⁺/—Mg²⁺)+5% FBS+0.1% Na-azide) to […]. In the case of monocytes, the cells were further blocked by adding 10 μl of a hFcR blocker (Miltenyi, #130-059-901) and incubated for 10 minutes at 4° C. 50 μl of cells (50.000 cells/well) were seeded into 96 well round-bottomed microtiter plates. Hybridoma supernatants or purified antibodies (in serial dilutions) were added to the cells at 50 μl/well. The isotype-matched purified irrelevant human mAb or mouse mAb served as negative controls (mouse IgG1, BD, #553452; mouse IgG2a, BD, #557353; mouse IgG2b, BD, #557352). […] Cells were washed in PBS, re-suspended in fixation buffer (1×PBS (—Ca²⁺/—Mg²⁺), pH7.2+1% formalin (B&B, #LAB96751.0500) and analysed by FACS flow cytometer. EC₅₀ values were calculated using a GraphPad Prism 5 software.

[3] = target: T2, Human OSCAR (osteoclast-associated …); assay: flow cytometry on primary human monocytes, donor #2
Protocol: as §3

[4] = target: T2, Human OSCAR (osteoclast-associated …); assay: cell-based or functional assay
[5] = target: T1, Human OSCAR-ECD (recombinant …); assay: SPR (Biacore T100), mAb coupled or captured on chip, OSCAR-ECD injected, 1:1 fit
Protocol: The kinetic parameters (kₐ, kd and KD) for the interaction were calculated using a 1:1 interaction Langmuir fitting model.

[6] = target: T1, Human OSCAR-ECD (recombinant …); assay: SPR competition, 50 nM OSCAR-ECD premixed with mAb, over immobilised collagen II; design: unit not given here
Protocol: as §1, §2

| Binder | binding of OSCAR-ECD to collagen I with 10 µg/mL mAb [1] | EC50 [2] | EC50 [3] | IC50 (IL-8), ColI-induced IL-8 release from moDC, Donor 1 [4] | IC50 (IL-8), ColI-induced IL-8 release from moDC, Donor 3 [4] | IC50 (IL-8), ColI-induced IL-8 release from moDC, Donor 4 [4] | Kd [5] | binding of OSCAR-ECD to collagen II with 10 µg/mL mAb [6] | IC50 (IL-8), ColI-induced IL-8 release from moDC, Donor 5 [4] | IC50 (IL-8), ColI-induced IL-8 release from moDC, Donor 6 [4] | IC50 (IL-8), ColI-induced IL-8 release from moDC, Donor 2 [4] |
| --- | --- | --- | --- | --- | --- | --- | --- | --- | --- | --- | --- |
| 6F3A (antibody, V domains shown, Mouse anti-OSCAR mAb) VH: EVQLQQSGAELVKPGASVKLSCTASGFNIKDTYVHWVKQRPDQGLEWIGRIDPAIGNTKYDPKFRGKATITADSSSNTAYLQLSSLTSEDTAVYYCARLSYGNYGLDYSMDYWGQGTSVTVSS VL: DIVLTQSPATLSVTPGDSVSLSCRASQSITNNLHWYQQKSHESPRLLIKYASQSISGIPSRFRGSGSGTDFTLSINSVETEDFGVYFCQQSNTWPRTFGGGTKLEIKR | 9.5 | – | – | – | – | 690 pM | – | 13.8 | > 20000 pM | 8060 pM | – |
| 16F56 (antibody, V domains shown, Fully human mAb from HuMab mice; also called 16F56 (Hu); 16F56A2) VH: QVQLVQSGAEVKKPGSSVKVSCKASGGTFSNYAISWVRQAPGQGLEWMGRIIPILGIAHNAQKFQDRVTITADKSTSTAYMELSSLRSEDTAVYYCASPSSGKGLPYWFFDLWGRGTLVTVSS VL: DIQMTQSPSFLSASVGDRVTITCRASQSISSYLNWYQQKPGKAPKLLIYAASSLQSGVPSRFSGSGSGTDFTLTISSLQPEDFATYYCQCGYSTPLTFGGGTKVEIKR | -3.2 | – | – | – | – | 60 pM | 300 pM | -1.9 | 100 pM | 210 pM | – |
| 7F21A1 (antibody, V domains shown, Mouse anti-human OSCAR mAb; The heavy chain entry covers only VH-CH1 and the start of the hinge) VH: QVQLQQSGAELVRPGTSVKVSCRSSGYAFTNYLIEWIKQRPGQGLEWIGVITPGSGGTNYNENFKDKATLTADKSSNTAYMQLTSLTSDDSAVYFCARSFDYDGAWFAYWGQGTLVTVSA VL: DIQMTQSPASLSVSVGETVTITCRASEKIYSNLAWYQQKQGKSPQLLVYAATNLADGVPSRFSGSGSGTQFSLKINNLQSEDFGSYYCQHFWGTPWTFGGGTKLEIKR | 144 | 9480 pM | 10 pM | – | 640 pM | 110 pM | 18000 pM | 319 | – | – | 20 pM |
| 16F119 (antibody, V domains shown, Fully human mAb from HuMab mice; also called 16F119 (Hu); 16F119A5) VH: QVQLVQSGAEVKKPGSSVKVSCKVSGGTFSNYAISWVRQAPGQGLEWMGRIIPILGIAAYAQRFRDRVTITADKFTSTVYMELSSLRSEDTAVYYCASGQLGTPYWYFDLWGRGTLVTVSS VL: not shown | -3.4 | – | – | – | – | 20 pM | 500 pM | -1.5 | 460 pM | 1120 pM | – |

The remaining lines, values ahead:

| binding of OSCAR-ECD to collagen I with 10 µg/mL mAb [1] | EC50 [2] | EC50 [3] | IC50 (IL-8), ColI-induced IL-8 release from moDC, Donor 1 [4] | IC50 (IL-8), ColI-induced IL-8 release from moDC, Donor 3 [4] | IC50 (IL-8), ColI-induced IL-8 release from moDC, Donor 4 [4] | Kd [5] | binding of OSCAR-ECD to collagen II with 10 µg/mL mAb [6] | IC50 (IL-8), ColI-induced IL-8 release from moDC, Donor 5 [4] | IC50 (IL-8), ColI-induced IL-8 release from moDC, Donor 6 [4] | IC50 (IL-8), ColI-induced IL-8 release from moDC, Donor 2 [4] | Binder |
| --- | --- | --- | --- | --- | --- | --- | --- | --- | --- | --- | --- |
| 55 | 1200 pM | 120 pM | 490 pM | 1590 pM | 2060 pM | 18000 pM | 102 | – | – | – | 7F10A1 (antibody, V domains shown, Mouse anti-human OSCAR mAb; The heavy chain entry covers only VH-CH1 and the start of the hinge) VH: QVQLQQSGAELARPGASVKLSCKASGYTFTDNYINWVKQRTGQGLEWIGEIYPGSGNTYYNEKFKGKATLTADKSSSTAYMQLSSLTSEDSAVYFCARSANRYDRGDFDYWGQGTPLTVSS VL: QILLTQSPAIMSASPGEKVTMTCSASSSVSYMHWYQQKPGSSPKPWIYDTSNLASGFPARFSGSGSGTSYSLIISSMEAEDAATYYCHQRSSYPYTFGGGTKLEIKR |
| 1.7 | – | – | – | – | 860 pM | – | 1 | > 20000 pM | 6560 pM | – | 6F6B (antibody, V domains shown, Mouse anti-OSCAR mAb) VH: EVQLQQSGAELVKPGASVKLSCTASGFNIKDTYVHWVKQRPDQGLEWIGRIDPAIGNTKYDPKFRGKATITADSSSNTAYLQLSSLTSEDTAVYYCARLSYGNYGLDYSMDYWGQGTSVTVSS VL: DIVLTQSPATLSVTPGDSVSLSCRASQSITNNLHWYQQKSHESPRLLIKYASQSISGIPSRFRGSGSGTDFTLSINSVETEDFGVYFCQQSNTWPRTFGGGTKLEIKR |
| 145 | 1210 pM | 120 pM | < 100 pM | 100 pM | 30 pM | 2700 pM | 335 | – | – | < 100 pM | 7F1A1 (antibody, V domains shown, Mouse anti-human OSCAR mAb; The heavy chain entry covers only VH-CH1 and the start of the hinge) VH: QVQLQQSGAELVRPGTSVKVSCKASGYAFTNYMIEWVKKRPGQGLEWIGVINPGSGGTNYNEKFENKATLTADKSSSTAYMQLSSLTSDDSAVYFCARSLDFDGAWFAYWGQGTLVTVSA VL: DIQMTQSPASLSVSVGETVTITCRASEKIYSNLAWYQQKQGKSPQLLVYAATNLADGVPSRFSGSGSGTQFSLKINSLQPEDFGSYYCQHFWGIPWTFGGGTKLEIKR |
| 19.2 | 3480 pM | 140 pM | – | 910 pM | – | 2700 pM | 19.3 | 2490 pM | 1280 pM | – | 7F6A1 (antibody, V domains shown, Mouse anti-human OSCAR mAb; The heavy chain entry covers only VH-CH1 and the start of the hinge) VH: DVKLVESGGGLVKPGGSLKLSCAASGFTFSSYVMSWVRQTPEKRLEWVATISSGGSYTYYPDSVKGRFTISRDNAKNTLYLQMSSLKSEDTAMYYCTREGGNSPDYWGQGTTLTVSS VL: ENVLTQSPAIMSASPGEKVTMTCSVSSSISYMHWYRQKSFTSPQLWIYDTSKLASGVPGRFSGSGSGISYSLTISSMEAEDVATYYCFQGSEYPLTFGAGTKLELKR |
| 56.3 | 2470 pM | 550 pM | 230 pM | 620 pM | – | 4500 pM | 83.6 | – | – | – | 7F14A1 (antibody, V domains shown, Mouse anti-human OSCAR mAb; also called 7F14A4) VH: QVQLKESGPGLVAPSQSLSITCSVSGFSLTSYGVHWVRQPPGKGLEWLGVMWAGGSTNYNSALMSRLSISKDNSKSQVFLKMNSLQTDDSAMYYCALQKGYGNYFDYWGQGTTLTVSS VL: QIVLTQSPAIMSASPGEKVTMTCSASSSVNYMHWYQQKSGTSPKRWIYDTSNLASGVPTRFSGSGSGTSYSLTISSMEAEDAATYYCQQWSSDPLTFGAGTKLELKR |
